B1: TCR clonotype 2 specific for MCPyV CT AA 32–40 (subject 1233) (peptide)
chain 1: CVVNNNNNDMRF
chain 2: CASVSGQGVSPLHF
B2: TCR clonotype 3 specific for MCPyV CT AA 32–40 (subject 1233) (peptide)
chain 1: CAGARNDYKLSF
chain 2: CATSRDGAGLVNQPQHF
B3: TCR clonotype 1 specific for MCPyV CT AA 32–40 (subject 1233) (peptide)
chain 1: CVVNGNNNDMRF
chain 2: CASSQGFGANVLTF
B4: TCR clonotype 1 specific for MCPyV LT AA 95–103 (subject 1233) (peptide)
chain 1: CAVRALGNAGNMLTF
chain 2: CASSPNPQGANMDTQYF

Legend:
[1] = molecular target: MCPyV common T antigen (CT; shared N-terminal domain of LT and ST) peptide on HLA-A*03:01 (human); test: IFNγ ELISA
[2] = molecular target: MCPyV large T antigen (LT) peptide on HLA-A*03:01 (human); test: IFNγ ELISA; conditions: chains alpha TRAV3*00 CDR3:beta TRBV4-3*00 CDR3
[3] = chains alpha TRAV12-1*00 CDR3:beta TRBV19*00 CDR3

Binder | EC50 of peptide [1, 3] [µg/mL] | further results
B1 | 0.0236 | 
B2 |  | EC50 of peptide ([1]; chains alpha TRAV25*00 CDR3:beta TRBV15*00 CDR3): 0.0234 µg/mL
B3 | 0.0076 | 
B4 |  | EC50 of peptide [2]: 0.0019 µg/mL

— paper PMC7196523
